# Reference: the supplement of paper PMC10598134
# ± gives the standard deviation.
# Experiment: collision cross section of modified peptide (TIMS, N2, iRT-aligned); higher = larger / more extended gas-phase ion
# Method in brief: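 Values are averages of 1–3 technical replicates of the most abundant feature for each charge state. Collision cross section was obtained from the Mason-Schamp equation after 1/K0 calibration with three reference ions and run-wise alignment to the median iRT peptide deviation. Synthetic peptide pools (iRT standard spiked 1:40) were separated on a 120-min nanoflow C18 gradient at 60 °C, analysed on a timsTOF Pro/HT (dda-PASEF, nitrogen, ~2.4 mbar) and identified with MaxQuant.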
# [1] = charge state: 2, modification: Propionyl
# [2] = charge state: 3, modification: Propionyl
# [3] = charge state: 2, modification: Glutarylation
# [4] = charge state: 3, modification: Glutarylation
# [5] = charge state: 2, modification: Crotonyl
# [6] = charge state: 2, modification: Methyl (K)
# [7] = charge state: 3, modification: Methyl (K)
# [8] = charge state: 3, modification: Dimethyl (K)
# [9] = charge state: 2, modification: Acetyl (K)
# [10] = charge state: 3, modification: Acetyl (K)
# [11] = charge state: 2, modification: Formyl
# [12] = charge state: 2, modification: Trimethyl (K)
# [13] = charge state: 3, modification: Trimethyl (K)
# [14] = charge state: 2, modification: Succinyl
# [15] = charge state: 2, modification: Phospho (Y)
# [16] = charge state: 3, modification: Phospho (Y)
# [17] = charge state: 2, modification: Butyryl
# [18] = charge state: 3, modification: Butyryl
# [19] = charge state: 2, modification: Biotin
# [20] = charge state: 3, modification: Biotin
# [21] = charge state: 2, modification: Malonyl
# [22] = charge state: 3, modification: Malonyl
# [23] = charge state: 2, modification: Citrullination (R)
# [24] = charge state: 3, modification: Citrullination (R)
# [25] = charge state: 3, modification: Crotonyl
# [26] = charge state: 2, modification: Nitro (Y)
# [27] = charge state: 2, modification: Hydroxyproline
# [28] = charge state: 3, modification: Hydroxyproline
# [29] = charge state: 2, modification: hydroxyisobutyryl
# [30] = charge state: 2, modification: GlyGly (K)
# [31] = charge state: 3, modification: Methyl (R)
sequence,measurement,setting,value
PASGAGAGAGAGKR [_PASGAGAGAGAGK(Propionyl)R_],collision cross section,[1],359.78 ± 0.65 Å²
same,collision cross section,[2],464.2 ± 0.076 Å²
DVNAAIAAIKTK [_DVNAAIAAIK(Gluratylation)TK_],collision cross section,[3],410.15 ± 0.99 Å²
same,collision cross section,[4],471.67 ± 2.5 Å²
LEQVEKELLR [_LEQVEK(Crotonyl)ELLR_],collision cross section,[5],389.19 ± 0.8 Å²
GETASKLQSEISR [_GETASK(Methyl (K))LQSEISR_],collision cross section,[6],400.35 Å²
same,collision cross section,[7],463.3 ± 3.8 Å²
IVEKYGYTHLSAGELLR [_IVEK(Dimethyl (K))YGYTHLSAGELLR_],collision cross section,[8],550.8 Å²
KFGVLSDNFK [_K(Crotonyl)FGVLSDNFK_],collision cross section,[5],376.47 ± 0.8 Å²
PASGAGAGAGAGKR [_PASGAGAGAGAGK(Acetyl (K))R_],collision cross section,[9],357.24 ± 1 Å²
same,collision cross section,[10],456.58 ± 2.9 Å²
ANEKTESSSAQQVAVSR [_ANEK(Formyl)TESSSAQQVAVSR_],collision cross section,[11],431.82 ± 1.4 Å²
same,collision cross section,"charge state: 3, modification: Formyl",523.66 ± 4.2 Å²
INNFSADIKDSK [_INNFSADIK(Trimethyl (K))DSK_],collision cross section,[12],411.01 ± 0.61 Å²
same,collision cross section,[13],459.74 ± 1.8 Å²
NLVTGDHIPTPQDLPQR [_NLVT(HexNAc (ST))GDHIPTPQDLPQR_],collision cross section,"charge state: 3, modification: HexNAc (ST)",500.97 Å²
LGNDFHTNKR [_LGNDFHTNK(Gluratylation)R_],collision cross section,[3],382 ± 0.1 Å²
same,collision cross section,[4],434.71 ± 2.9 Å²
TGGTQTDLFTCGKCK [_TGGTQTDLFTCGK(Succinyl)CK_],collision cross section,[14],437.09 Å²
LEKTIDDLEEK [_LEK(Trimethyl (K))TIDDLEEK_],collision cross section,[12],402.76 ± 0.62 Å²
same,collision cross section,[13],468.63 ± 1.5 Å²
FHYQDQEFLK [_FHY(Phospho (Y))QDQEFLK_],collision cross section,[15],397.81 ± 0.64 Å²
same,collision cross section,[16],447.23 ± 0.12 Å²
AGPNASIISLKSDK [_AGPNASIISLK(Dimethyl (K))SDK_],collision cross section,"charge state: 2, modification: Dimethyl (K)",413.93 ± 1.1 Å²
same,collision cross section,[8],484.65 ± 1.6 Å²
SSGPGGQNVNKVNSK [_SSGPGGQNVNK(Butyryl)VNSK_],collision cross section,[17],405.84 ± 0.57 Å²
same,collision cross section,[18],443.95 ± 2 Å²
VGTASVLQPVKK [_VGTASVLQPVK(Propionyl)K_],collision cross section,[1],382.42 ± 0.33 Å²
LEQVEKELLR [_LEQVEK(Biotin)ELLR_],collision cross section,[19],410.78 Å²
LQDVSGQLSSSKK [_LQDVSGQLSSSK(Biotin)K_],collision cross section,[19],425.22 ± 2.6 Å²
same,collision cross section,[20],506.69 Å²
LLEEEDSKLK [_LLEEEDSK(Malonyl)LK_],collision cross section,[21],379.46 ± 1.1 Å²
TFGKAAGPSLSHTSGGTQSK [_TFGK(Malonyl)AAGPSLSHTSGGTQSK_],collision cross section,[22],514.27 ± 0.92 Å²
TQAYQDQKPGTSGLR [_TQAYQDQK(Butyryl)PGTSGLR_],collision cross section,[17],427.73 ± 0.77 Å²
same,collision cross section,[18],479.17 ± 3.5 Å²
RLPNVHGR [_R(Citrullination (R))LPNVHGR_],collision cross section,[23],340.93 ± 1.6 Å²
same,collision cross section,[24],417.11 ± 3.5 Å²
SNEEGSEEKGPEVR [_SNEEGSEEK(Succinyl)GPEVR_],collision cross section,[14],403.42 ± 0.55 Å²
VFIGNLNTLVVKK [_VFIGNLNTLVVK(Acetyl (K))K_],collision cross section,[9],409.46 ± 1.7 Å²
same,collision cross section,[10],485 Å²
DYSAPVNFISAGLKK [_DYSAPVNFISAGLK(Crotonyl)K_],collision cross section,[5],438.67 ± 0.84 Å²
same,collision cross section,[25],525.96 ± 1.3 Å²
DESFLGKLGGTLAR [_DESFLGK(Acetyl (K))LGGTLAR_],collision cross section,[9],410.82 ± 1.1 Å²
same,collision cross section,[10],491.27 Å²
GRGAAAAGGPQR [_GR(Citrullination (R))GAAAAGGPQR_],collision cross section,[23],334.88 ± 0.28 Å²
AAGQPYEQHAK [_AAGQPY(Nitro (Y))EQHAK_],collision cross section,[26],375.04 ± 1.1 Å²
same,collision cross section,"charge state: 3, modification: Nitro (Y)",431.09 ± 1.1 Å²
LEKTIDDLEEK [_LEK(Crotonyl)TIDDLEEK_],collision cross section,[5],409.2 ± 1.1 Å²
GEPGQGLRGLQGPPGK [_GEPGQGLRGLQGPP(Hydroxyproline)GK_],collision cross section,[27],408.26 ± 1.5 Å²
same,collision cross section,[28],445.73 ± 1.3 Å²
TQAYQDQKPGTSGLR [_TQAYQDQK(hydroxyisobutyryl)PGTSGLR_],collision cross section,[29],431.22 ± 0.52 Å²
same,collision cross section,"charge state: 3, modification: hydroxyisobutyryl",484.99 ± 2.8 Å²
DAEAAEATAEGALKAEK [_DAEAAEATAEGALK(Malonyl)AEK_],collision cross section,[21],425.91 ± 1 Å²
same,collision cross section,[22],541.5 Å²
GEKGLPGLAGDHGEFGEK [_GEKGLP(Hydroxyproline)GLAGDHGEFGEK_],collision cross section,[28],558.56 ± 0.81 Å²
IHVQSSSDSSDEPAEKR [_IHVQSSSDSSDEPAEK(Propionyl)R_],collision cross section,[2],506.45 ± 1.4 Å²
LYLPVQNK [_LY(Nitro (Y))LPVQNK_],collision cross section,[26],340.84 ± 0.55 Å²
YEQEHAAIQDKLFQVAK [_YEQEHAAIQDK(Dimethyl (K))LFQVAK_],collision cross section,[8],556.37 ± 0.79 Å²
INNFSADIKDSK [_INNFSADIK(Propionyl)DSK_],collision cross section,[1],401.7 ± 0.42 Å²
AGPNASIISLKSDK [_AGPNASIISLK(Trimethyl (K))SDK_],collision cross section,[12],422.03 ± 0.65 Å²
same,collision cross section,[13],457.38 ± 2.4 Å²
VLTANSNPSSPSAAKR [_VLTANSNPSSPSAAK(Biotin)R_],collision cross section,[19],443.24 ± 0.79 Å²
same,collision cross section,[20],547.09 ± 3.1 Å²
IHVQSSSDSSDEPAEKR [_IHVQSSSDSSDEPAEK(Methyl (K))R_],collision cross section,[6],448.84 Å²
same,collision cross section,[7],522.27 ± 1 Å²
TLDEILQEKK [_TLDEILQEK(Crotonyl)K_],collision cross section,[5],381.71 ± 0.8 Å²
same,collision cross section,[25],444.38 ± 1.6 Å²
AYDATHLVK [_AY(Phospho (Y))DATHLVK_],collision cross section,[15],354.67 ± 0.75 Å²
same,collision cross section,[16],427.71 Å²
SGFGKFER [_SGFGK(GlyGly (K))FER_],collision cross section,[30],340.43 ± 0.74 Å²
AAINQKLIETGER [_AAINQK(Methyl (K))LIETGER_],collision cross section,[6],414.21 ± 2.1 Å²
same,collision cross section,[7],471.88 ± 4.4 Å²
GFLQPPPLRQPR [_GFLQPPPLR(Methyl (R))QPR_],collision cross section,"charge state: 2, modification: Methyl (R)",399.75 Å²
same,collision cross section,[31],450.22 ± 3.5 Å²
PRGVISTPVIR [_PR(Citrullination (R))GVISTPVIR_],collision cross section,[23],367.21 ± 0.24 Å²
same,collision cross section,[24],478.04 Å²
YSSSSIPEPFGSRGSPR [_YSSSSIPEPFGSR(Methyl (R))GSPR_],collision cross section,[31],522.38 ± 1.8 Å²
PSVGSQSNQAGQGKR [_PSVGSQSNQAGQGK(Gluratylation)R_],collision cross section,[3],412.64 ± 1.7 Å²
same,collision cross section,[4],479.06 ± 9.1 Å²
LLEQKTQESQK [_LLEQK(Butyryl)TQESQK_],collision cross section,[17],398.26 ± 0.79 Å²
GGGFGAHGRGR [_GGGFGAHGR(Citrullination (R))GR_],collision cross section,[23],343.86 ± 0.28 Å²
same,collision cross section,[24],412.59 ± 0.45 Å²
VGTASVLQPVKK [_VGTASVLQPVK(Crotonyl)K_],collision cross section,[5],387.11 ± 0.8 Å²
HELQANCYEEVKDR [_HELQANCYEEVK(Malonyl)DR_],collision cross section,[22],477.83 ± 2.4 Å²
DDSNLYINVK [_DDSNLY(Nitro (Y))INVK_],collision cross section,[26],367.46 ± 0.55 Å²
LDEKENLSAK [_LDEK(Formyl)ENLSAK_],collision cross section,[11],361.57 ± 0.88 Å²
LDEKENLSAK [_LDEK(Biotin)ENLSAK_],collision cross section,[19],382.87 Å²
VPGVGLPGVYPGGVLPGAR [_VPGVGLPGVYPGGVLP(Hydroxyproline)GAR_],collision cross section,[27],432.24 ± 0.28 Å²
same,collision cross section,[28],534.68 ± 3 Å²
YTTNNSSEQR [_Y(Nitro (Y))TTNNSSEQR_],collision cross section,[26],355.01 ± 0.17 Å²
GADFLVTEVENGGSLGSKK [_GADFLVTEVENGGSLGSK(GlyGly (K))K_],collision cross section,[30],505.48 Å²
HELQANCYEEVKDR [_HELQANCYEEVK(Biotin)DR_],collision cross section,[20],512.53 ± 1.6 Å²
PASGAGAGAGAGKR [_PASGAGAGAGAGK(GlyGly (K))R_],collision cross section,[30],395.09 ± 1.4 Å²
same,collision cross section,"charge state: 3, modification: GlyGly (K)",472.77 ± 1.1 Å²
TTEETSKPK [_TTEETSK(hydroxyisobutyryl)PK_],collision cross section,[29],347.15 ± 3.9 Å²
VNIGQGSHPQKVK [_VNIGQGSHPQK(Trimethyl (K))VK_],collision cross section,[12],405.12 ± 1.9 Å²
same,collision cross section,[13],473.39 ± 2.7 Å²
DYILEGEPGK [_DY(Nitro (Y))ILEGEPGK_],collision cross section,[26],355.27 ± 0.17 Å²
STGLELETPSLVPVKK [_STGLELETPSLVPVK(Malonyl)K_],collision cross section,[21],445.74 ± 0.66 Å²
PASGAGAGAGAGKR [_PASGAGAGAGAGK(Malonyl)R_],collision cross section,[21],352.42 ± 0.026 Å²
VDVEVPDVSLEGPEGKLK [_VDVEVPDVSLEGPEGK(Trimethyl (K))LK_],collision cross section,[12],461.69 ± 0.55 Å²
same,collision cross section,[13],507.27 ± 0.86 Å²
